In publication PMC4176350, “A high security double lock and key mechanism in HUH relaxases controls oriT-processing for plasmid conjugation”:

Target: T1, TrwCR (TrwC relaxase domain, TrwC-N293) (Escherichia coli? (plasmid R388), UniProt Q47673 1-293)
T1 sequence: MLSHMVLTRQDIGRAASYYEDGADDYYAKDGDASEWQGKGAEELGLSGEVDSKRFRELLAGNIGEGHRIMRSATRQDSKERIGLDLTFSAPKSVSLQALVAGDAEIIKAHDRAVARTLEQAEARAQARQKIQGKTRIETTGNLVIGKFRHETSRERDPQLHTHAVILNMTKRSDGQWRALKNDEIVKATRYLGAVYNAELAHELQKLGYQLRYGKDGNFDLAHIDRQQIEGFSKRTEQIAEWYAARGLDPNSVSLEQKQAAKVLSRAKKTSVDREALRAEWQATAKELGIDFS
Experiment: X-ray crystallography; 1:1.5 protein:DNA; Crystallization: TrwCR 6 mg/ml in 200 mM NaCl, 20 mM Tris-HCl pH 7.5, 1 mM DTT, 0.5 mM EDTA; reservoir 2 M ammonium phosphate, 0.1 M Tris-HCl pH 8.5, 22 C
Conditions: protein: recombinant; hairpin with 3' single-stranded tail

B1: RIV(23+2), nic mutant IV (structured_DNA)
DNA: GCACCGAAAGGTGCGTATTCTTGGT
B1: binds.
